Target: T1, Mouse BAI3 N-terminal domain (NTD) encompassing residues 26-290 (mouse, UniProt Q80ZF8 26-290)
T1 construct: The vector encodes a 3C site, an Fc-tag and a C-terminal His tag after the NTD; the His tag lies after the 3C site and so was probably removed with the Fc; also called BAI3 NTD; BAI3 CUB domain; source: HEK293S GnTI- cells, BacMam virus (pVLAD8L), secreted, purified (Ni2+-NTA, 3C cleavage, SEC); not shown: Fc, C-terminal, cleaved
T1 sequence (looked up): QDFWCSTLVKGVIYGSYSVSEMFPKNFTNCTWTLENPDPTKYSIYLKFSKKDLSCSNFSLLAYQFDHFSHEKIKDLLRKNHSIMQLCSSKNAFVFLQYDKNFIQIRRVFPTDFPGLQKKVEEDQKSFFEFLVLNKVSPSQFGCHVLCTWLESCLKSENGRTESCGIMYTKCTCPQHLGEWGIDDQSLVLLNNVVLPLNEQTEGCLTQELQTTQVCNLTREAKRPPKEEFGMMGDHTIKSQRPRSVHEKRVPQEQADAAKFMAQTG
Assay: SEC; purified proteins mixed, size-exclusion chromatography and Coomassie-stained SDS-PAGE of fractions; 1x HBS (10 mM HEPES pH 7.2, 150 mM NaCl) with 2 mM CaCl2
Details: both partners purified

- binding result: binds
B1: C1ql3 globular C1q-like domain (residues 122-255) (domain or fragment, mouse, UniProt Q9ESN4 122-255, looked up)
chain: STVPKIAFYAGLKRQHEGYEVLKFDDVVTNLGNHYDPTTGKFTCSIPGIYFFTYHVLMRGGDGTSMWADLCKNNQVRASAIAQDADQNYDYASNSVVLHLEPGDEVYIKLDGGKAHGGNNNKYSTFSGFIIYAD
notes: C1q-like 3 protein (C1ql3), mouse, C1q-like domain, residues 122-255; buffer contained 2 mM CaCl2; The tag is surmised from the Ni-NTA step; also called C1q-like domain trimer of C1ql3; C1ql3 C1q-like domain; source: Expi293F GnTI- cells, transfected (pEG BacMam), purified (Ni2+-NTA, SEC)

— article PMC12048575, “Structure of the complex of C1q-like 3 protein with adhesion-GPCR BAI3” (Communications Biology, 2025)
